Experimental data from paper PMC4740876.

Tests used:
[1] = target: mononucleosome containing H2B-Ub (ubiquitin on Lys120 of H2B by a stable isopeptide linkage) (UniProt P62807); experiment: SEC-MALS; mononucleosomes (300 pmol) with the catalytic domain of hDot1L (8.5 nmol) in 25 mM Tris-HCl, 150 mM NaCl, pH 7.8, 4 °C 30 min; Superdex 200 10/300
[2] = target: unmodified mononucleosome; experiment: as above

cysteine-less catalytic domain of hDot1L, hDot1L(1–416)C44S/C74S/C178S (from UniProt Q8TEK3 2-417) (enzyme)
stoichiometry N (hDot1L per mononucleosome) [1]: 2 | stoichiometry N (hDot1L per mononucleosome) [2]: 1
